Reference: patent US20230002496A1 (STAIDSON BEIJING BIOPHARMACEUTICALS, published 2023)
Where two headings read alike, the source gives them in different places.

T1: human GM-CSFRα-6His (human, UniProt P15509 23-320)
T1 construct: pTT5-GMRa-6his (ECD), made in 293F cells; also called GMRah; GMRa-6his(ECD)
T1 sequence: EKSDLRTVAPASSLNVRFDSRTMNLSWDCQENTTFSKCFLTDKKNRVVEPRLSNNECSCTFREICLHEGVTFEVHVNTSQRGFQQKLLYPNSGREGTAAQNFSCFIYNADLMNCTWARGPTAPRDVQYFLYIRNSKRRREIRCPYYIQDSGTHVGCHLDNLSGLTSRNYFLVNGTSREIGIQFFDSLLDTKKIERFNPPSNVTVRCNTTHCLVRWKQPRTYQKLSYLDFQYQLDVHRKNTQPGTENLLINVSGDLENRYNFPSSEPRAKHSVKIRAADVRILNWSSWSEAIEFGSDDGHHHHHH


How the values were obtained:
Test in all cases: ELISA on human GM-CSFRα, antibodies as human IgG1; x axis 'Log Ab concentration', no unit
human GM-CSFRα-6His [1] = biological target: T1, human GM-CSFRα-6His
human GM-CSFRα-6His [2] = biological target: T1, human GM-CSFRα-6His; remark: listed apart in the source
human GM-CSFRα-6His [3] = biological target: T1, human GM-CSFRα-6His; remark: listed apart in the source

| Binder | binding result (human GM-CSFRα-6His [1]) | binding result (human GM-CSFRα-6His [2]) | further results |
| --- | --- | --- | --- |
| E01-IgG1 (antibody, V domains shown, human IgG1, human kappa; also called E1) VH: QMQLVQSGAEVKKPGASVKVSCKVSGHTLTELSIHWVRQAPGKGLEWMGGFDPEDGETNYAQKSQGRVTMTGDTSTDTAYLELSSLRSEDTALYYCATGRYCSTDTCYGFDYWGQGTLVTVSS VL: EIVMTQSPATLSLSPGERATLSCRASQSVSSYLAWYQQKPGQAPRLLIYGASSRATGIPDRFSGSGSGTDFTLTISRLEPEDFAVYYCQQYDNWPPTFGQGTKLEIK | binds | – | – |
| E30-IgG1 (antibody, V domains shown, human IgG1, human kappa) VH: QMQLVQSGAEVKKPGASVKVSCKVSGHTLTELSIHWVRQAPGKGLEWMGGFDPEDGETIYAQKFQGRVTMTGDTSTDTAYLELSSLRSEDTALYYCATGRYCSTDTCYGFDYWGQGTLVTVSS VL: EIVMTQSPATLSLSPGERATLSCRASQSVSSYLAWYQQKPGQAPRLLIYGASSRATGIPDRFSGSGSGTDFTLTISRLEPEDFAVYYCQQYDNSPHTFGQGTKLEIK | – | binds | – |
| E40-IgG1 (antibody, V domains shown, human IgG1, human kappa) VH: QMQLVQSGAEVKKPGASVKVSCKVSGHTLTELSIHWVRQAPGKGLEWMGGFDPEDGETIYAQKFQGRVTMTGDTSTDTAYLELSSLRSEDTALYYCATGRYTSLDESYGFDYWGQGTLVTVSS VL: EIVMTQSPATLSLSPGERATLSCRASQSVSSYLAWYQQKPGQAPRLLIYGASSRATGIPDRFSGSGSGTDFTLTISRLEPEDFAVYYCQQYDNSPYTFGQGTKLEIK | – | – | binding result (human GM-CSFRα-6His [3]): binds |
| E29-IgG1 (antibody, V domains shown, human IgG1, human kappa) VH: QMQLVQSGAEVKKPGASVKVSCKVSGHTLTELSIHWVRQAPGKGLEWMGGFDPEDGETIYAQKFQGRVTMTGDTSTDTAYLELSSLRSEDTALYYCATGRYCFPDTCYGFDYWGQGTLVTVSS VL: EIVMTQSPATLSLSPGERATLSCRASQSVSSYLAWYQQKPGQAPRLLIYGASSRATGIPDRFSGSGSGTDFTLTISRLEPEDFAVYYCQQYDNSPHTFGQGTKLEIK | – | binds | – |
| E172-IgG1 (antibody, V domains shown, human IgG1, human kappa) VH: QMQLVQSGAEVKKPGASVKVSCKVSGYTLTELSMHWVRQAPGKGLEWMGGFDPEDGETIYAQKFQGRVTMTGDTSTDTAYLELSSLRSEDTALYYCATGRYANLYNNYGFDYWGQGTLVTVSS VL: EIVMTQSPATLSLSPGERATLSCRASQSVSSYLAWYQQKPGQAPRLLIYGASSRATGIPDRFSGSGSGTDFTLTISRLEPEDFAVYYCQQYNNWPPTFGQGTKLEIK | binds | – | – |
| E164-IgG1 (antibody, V domains shown, human IgG1, human kappa) VH: QMQLVQSGAEVKKPGASVKVSCKVSGHTLTELSMHWVRQAPGKGLEWMGGFDPEDGETIYAQKSQGRVTMTGDTSTDTAYLELSSLRSEDTALYYCATGRYTNDFANYGFDYWGQGTLVTVSS VL: EIVMTQSPATLSLSPGERATLSCRASQSVSSYLAWYQQKPGQAPRLLIYGASSRATGIPDRFSGSGSGTDFTLTISRLEPEDFAVYYCQQYNNWPYTFGQGTKLEIK | binds | – | – |
| E31-IgG1 (antibody, V domains shown, human IgG1, human kappa) VH: QMQLVQSGAEVKKPGASVKVSCKVSGYTLTELSIHWVRQAPGKGLEWMGGFDPEDGETIYAQKSQGRVTMTGDTSTDTAYLELSSLRSEDTALYYCATGRYSESFASYGFDYWGQGTLVTVSS VL: EIVMTQSPATLSLSPGERATLSCRASQSVSSYLAWYQQKPGQAPRLLIYGASSRATGIPDRFSGSGSGTDFTLTISRLEPEDFAVYYCQQYDNWPYTFGQGTKLEIK | binds | – | – |
| E54-IgG1 (antibody, V domains shown, human IgG1, human kappa) VH: QMQLVQSGAEVKKPGASVKVSCKVSGYTLTELSMHWVRQAPGKGLEWMGGFDPEDGETIYAQKFQGRVTMTGDTSTDTAYLELSSLRSEDTALYYCATGRYSSYDIAYGFDYWGQGTLVTVSS VL: EIVMTQSPATLSLSPGERATLSCRASQSVSSYLAWYQQKPGQAPRLLIYGASSRATGIPDRFSGSGSGTDFTLTISRLEPEDFAVYYCQQYNSSPPTFGQGTKLEIK | – | binds | – |
| E16-IgG1 (antibody, V domains shown, human IgG1, human kappa) VH: QMQLVQSGAEVKKPGASVKVSCKVSGYTLTELSIHWVRQAPGKGLEWMGGFDPEDGEAIYAQKSQGRVTMTGDTSTDTAYLELSSLRSEDTALYYCATGRYSEHSTSYGFDYWGQGTLVTVSS VL: EIVMTQSPATLSLSPGERATLSCRASQSVSSYLAWYQQKPGQAPRLLIYGASSRATGIPDRFSGSGSGTDFTLTISRLEPEDFAVYYCQQYDSWPYTFGQGTKLEIK | – | binds | – |
| E88-IgG1 (antibody, V domains shown, human IgG1, human kappa) VH: QMQLVQSGAEVKKPGASVKVSCKVSGHTLTELSMHWVRQAPGKGLEWMGGFDPEDGETIYAQKFQGRVTMTGDTSTDTAYLELSSLRSEDTALYYCATGRYCHKDGCYGFDYWGQGTLVTVSS VL: EIVMTQSPATLSLSPGERATLSCRASQSVSSYLAWYQQKPGQAPRLLIYGASSRATGIPDRFSGSGSGTDFTLTISRLEPEDFAVYYCQQYDSSPHTFGQGTKLEIK | binds | – | – |
| E39-IgG1 (antibody, V domains shown, human IgG1, human kappa) VH: QMQLVQSGAEVKKPGASVKVSCKVSGHTLTELSIHWVRQAPGKGLEWMGGFDPEDGETIYAQKFQGRVTMTGDTSTDTAYLELSSLRSEDTALYYCATGRYCSSDLCYGFDYWGQGTLVTVSS VL: EIVMTQSPATLSLSPGERATLSCRASQSVSSYLAWYQQKPGQAPRLLIYGASSRATGIPDRFSGSGSGTDFTLTISRLEPEDFAVYYCQQYDNSPHTFGQGTKLEIK | – | – | binding result (human GM-CSFRα-6His [3]): binds |
| E83-IgG1 (antibody, V domains shown, human IgG1, human kappa) VH: QMQLVQSGAEVKKPGASVKVSCKVSGYTLTELSIHWVRQAPGKGLEWMGGFDPEDGETIYAQKSQGRVTMTGDTSTDTAYLELSSLRSEDTALYYCATGRYCFYDLCYGFDYWGQGTLVTVSS VL: EIVMTQSPATLSLSPGERATLSCRASQSVSSYLAWYQQKPGQAPRLLIYGASSRATGIPDRFSGSGSGTDFTLTISRLEPEDFAVYYCQQYSNSPPTFGQGTKLEIK | binds | – | – |
| E61-IgG1 (antibody, V domains shown, human IgG1, human kappa) VH: QMQLVQSGAEVKKPGASVKVSCKVSGYTLTELSMHWVRQAPGKGLEWMGGFDPEDGETIYAQKFQGRVTMTGDTSTDTAYLELSSLRSEDTALYYCATGRYAWTDIAYGFDYWGQGTLVTVSS VL: EIVMTQSPATLSLSPGERATLSCRASQSVSSYLAWYQQKPGQAPRLLIYGASSRATGIPDRFSGSGSGTDFTLTISRLEPEDFAVYYCQQYDNSPSTFGQGTKLEIK | binds | – | – |

Second part, led by results:

| binding result (human GM-CSFRα-6His [1]) | binding result (human GM-CSFRα-6His [2]) | Binder | further results |
| --- | --- | --- | --- |
| binds | – | E90-IgG1 (antibody, V domains shown, human IgG1, human kappa) VH: QMQLVQSGAEVKKPGASVKVSCKVSGYTLTELSIHWVRQAPGKGLEWMGGFDPEDGETIYAQKSQGRVTMTGDTSTDTAYLELSSLRSEDTALYYCATGRYTGLYASYGFDYWGQGTLVTVSS VL: EIVMTQSPATLSLSPGERATLSCRASQSVSSYLAWYQQKPGQAPRLLIYGASSRATGIPDRFSGSGSGTDFTLTISRLEPEDFAVYYCQQYDNWPYTFGQGTKLEIK | – |
| – | binds | E27-IgG1 (antibody, V domains shown, human IgG1, human kappa) VH: QMQLVQSGAEVKKPGASVKVSCKVSGYTLTELSIHWVRQAPGKGLEWMGGFDPEDGETIYAQKFQGRVTMTGDTSTDTAYLELSSLRSEDTALYYCATGRYISFMFTYGFDYWGQGTLVTVSS VL: EIVMTQSPATLSLSPGERATLSCRASQSVSSYLAWYQQKPGQAPRLLIYGASSRATGIPDRFSGSGSGTDFTLTISRLEPEDFAVYYCQQYNNWPPTFGQGTKLEIK | – |
| binds | – | E84-IgG1 (antibody, V domains shown, human IgG1, human kappa) VH: QMQLVQSGAEVKKPGASVKVSCKVSGYTLTELSMHWVRQAPGKGLEWMGGFDPEDGETIYAQKSQGRVTMTGDTSTDTAYLELSSLRSEDTALYYCATGRYTRGWFNYGFDYWGQGTLVTVSS VL: EIVMTQSPATLSLSPGERATLSCRASQSVSSYLAWYQQKPGQAPRLLIYGASSRATGIPDRFSGSGSGTDFTLTISRLEPEDFAVYYCQQYNNWPYTFGQGTKLEIK | – |
| – | binds | T119-IgG1 (antibody, V domains shown, human IgG1, human kappa; parent antibody) VH: QMQLVQSGAEVKKPGASVKVSCKVSGHTLTELSIHWVRQAPGKGLEWMGGFDPEDGETNYAQKSQGRVTMTGDTSTDTAYLELSSLRSEDTALYYCATGRYCSTDTCYGFDYWGQGTLVTVSS VL: EIVMTQSPATLSLSPGERATLSCRASQSVSSYLAWYQQKPGQAPRLLIYGASSRATGIPDRFSGSGSGTDFTLTISRLEPEDFAVYYCQQYNNWPPTFGQGTKLEIK | – |
| – | binds | E09-IgG1 (antibody, V domains shown, human IgG1, human kappa; also called E9) VH: QMQLVQSGAEVKKPGASVKVSCKVSGHTLTELSMHWVRQAPGKGLEWMGGFDPEDGETIYAQKFQGRVTMTGDTSTDTAYLELSSLRSEDTALYYCATGRYCGHASCYGFDYWGQGTLVTVSS VL: EIVMTQSPATLSLSPGERATLSCRASQSVSSYLAWYQQKPGQAPRLLIYGASSRATGIPDRFSGSGSGTDFTLTISRLEPEDFAVYYCQQYNNWPPTFGQGTKLEIK | – |
| – | binds | E34-IgG1 (antibody, V domains shown, human IgG1, human kappa) VH: QMQLVQSGAEVKKPGASVKVSCKVSGYTLTELSIHWVRQAPGKGLEWMGGFDPEDGETIYAQKFQGRVTMTGDTSTDTAYLELSSLRSEDTALYYCATGRYSFTDLAYGFDYWGQGTLVTVSS VL: EIVMTQSPATLSLSPGERATLSCRASQSVSSYLAWYQQKPGQAPRLLIYGASSRATGIPDRFSGSGSGTDFTLTISRLEPEDFAVYYCQQYDSSPPTFGQGTKLEIK | – |
